These results are taken from PMC9667317, “Metal migration and subunit swapping in ALS-linked SOD1: Zn^2+ transfer between mutant and wild-type occurs faster than the rate of heterodimerization” (The Journal of Biological Chemistry, 2022).

Common to all, as to settings: both partners purified
Assay [1] concerns the target T1, WT Cu, Zn superoxide dismutase-1 (SOD1), recombinant human (human, UniProt P00441 1-154).
T1 construct: Cu, Zn superoxide dismutase-1 (SOD1), human; Homodimer; intramolecular disulfide bond intact; N-terminus probably acetylated (surmise); also called WT SOD1; WT apo-SOD1; source: demetalated by dialysis, remetalated with ZnSO4 where stated
In words: capillary electrophoresis; both homodimers as 4Zn-SOD1; 15 μM dimer each ([SOD1]total = 30 μM), followed over time; 10 mM potassium phosphate pH 7.4, CE at 22 °C, storage at 15 °C; KHet assumed from the fit extrapolated to t = 5000 min.

In assay [2] the target is T1, WT Cu, Zn superoxide dismutase-1 …. In words: capillary electrophoresis; both homodimers apo (metal-free, disulfide intact), mixed at 15 μM dimer each ([SOD1]total = 30 μM), followed over time; 10 mM potassium phosphate pH 7.4, CE at 22 °C, storage at 15 °C; KHet assumed from the fit extrapolated to t = 5000 min.
The target is the same in assay [3]. In words: capillary electrophoresis; binder (first named) as apo-SOD1, target (second named, WT or TD) as 4Zn-SOD1; 15 μM dimer each ([SOD1]total = 30 μM), followed over time; 10 mM potassium phosphate pH 7.4, CE at 22 °C, storage at 15 °C; KHet assumed from the fit extrapolated to t = 5000 min.
Assay [4] has the same target. As to the kind of experiment: capillary electrophoresis; binder (first named) as 4Zn-SOD1, target (second named, WT or TD) as apo-SOD1; 15 μM dimer each ([SOD1]total = 30 μM), followed over time; 10 mM potassium phosphate pH 7.4, CE at 22 °C, storage at 15 °C; KHet assumed from the fit extrapolated to t = 5000 min.

T1 sequence (P00441 whole entry): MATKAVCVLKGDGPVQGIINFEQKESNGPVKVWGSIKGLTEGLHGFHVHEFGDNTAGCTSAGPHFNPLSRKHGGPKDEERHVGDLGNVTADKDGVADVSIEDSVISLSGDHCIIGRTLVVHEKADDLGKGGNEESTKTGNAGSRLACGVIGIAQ

B1: triply deamidated SOD1 (modeled with N26D/N131D/N139D substitutions), recombinant human (enzyme)
chain: not shown
notes: Cu, Zn superoxide dismutase-1 (SOD1), human, triple mutant N26D/N131D/N139D; printed mass of the apo subunit 15847 Da; Homodimer; disulfide intact; also called TD SOD1; TD; source: demetalated by dialysis, remetalated with ZnSO4 where stated
B1: the “assumed KHet (t = 5000 min)” value was 2.13 ± 0.71 in assay [1], 2.34 ± 0.31 in assay [2], 2.27 ± 0.08 in assay [3] and 2.09 ± 0.14 in assay [4]. Besides, the “kHet (rate constant of heterodimerization)” value is 0.0038 min⁻¹ in assay [1], 0.0128 min⁻¹ in assay [2], 0.0066 min⁻¹ in assay [3] and 0.0041 min⁻¹ in assay [4].
